Starred links: 1 amine or outer side, 2 acyl side, 3 side chain; linkers in the order of their positions; H or OH if unused. Non-standard residues stand in square brackets, D forms with d. Groups on a side chain read outwards from the residue. No end group written: not given here. *: point of attachment. C20 diacid = O=C(O)CCCCCCCCCCCCCCCCCCC(=O)*; C18 diacid = O=C(O)CCCCCCCCCCCCCCCCC(=O)*; γGlu = O=C(O)[C@H](CCC(=O)[*:2])N[*:1]; εLys = N[C@@H](CCCCN[*:1])C(=O)[*:2]; AEEA = NCCOCCOCC(=O)O; Aib = CC(C)(N)C(=O)O
Tests used:
Experiment in all cases: cell-based or functional assay
[1] = target: human GLP-1 receptor (human, UniProt P43220 24-463)
[2] = target: T1, human GIP receptor (human, UniProt P48546 22-466)
T1 sequence (looked up): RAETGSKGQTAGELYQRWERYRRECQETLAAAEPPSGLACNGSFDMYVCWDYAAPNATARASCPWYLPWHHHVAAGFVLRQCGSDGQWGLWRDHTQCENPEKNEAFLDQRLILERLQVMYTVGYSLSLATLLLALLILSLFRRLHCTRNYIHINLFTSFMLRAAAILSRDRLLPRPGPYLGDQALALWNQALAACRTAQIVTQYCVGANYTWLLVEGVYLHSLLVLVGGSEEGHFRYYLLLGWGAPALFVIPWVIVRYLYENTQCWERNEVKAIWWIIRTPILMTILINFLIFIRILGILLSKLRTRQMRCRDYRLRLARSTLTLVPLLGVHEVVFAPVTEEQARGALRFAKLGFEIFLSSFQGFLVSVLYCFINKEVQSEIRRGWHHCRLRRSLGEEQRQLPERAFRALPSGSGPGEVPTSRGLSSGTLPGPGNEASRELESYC

[3] = target: T2, human neuropeptide Y2 (NPY2) receptor (human, UniProt P49146 1-381)
T2 sequence (looked up): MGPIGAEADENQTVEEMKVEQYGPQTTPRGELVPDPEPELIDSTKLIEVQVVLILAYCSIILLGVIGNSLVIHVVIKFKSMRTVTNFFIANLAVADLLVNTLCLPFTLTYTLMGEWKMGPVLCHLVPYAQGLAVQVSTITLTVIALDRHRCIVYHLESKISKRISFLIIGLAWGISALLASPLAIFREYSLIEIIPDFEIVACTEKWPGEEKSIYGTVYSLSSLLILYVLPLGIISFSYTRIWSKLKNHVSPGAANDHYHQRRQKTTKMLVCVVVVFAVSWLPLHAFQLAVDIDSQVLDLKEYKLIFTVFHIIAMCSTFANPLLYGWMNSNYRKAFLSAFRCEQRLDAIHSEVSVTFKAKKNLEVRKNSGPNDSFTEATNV

Y[Aib]EGTFTSDYSI[Aib]LEKQAQ[Aib]AFVQWLIKGGPESGASLRHYYNWLTRQRY-NH2 (not fully specified (residue 28); also: TFA salt) [Compound 55]
EC50, CreLuc assay, 0.5% hP [1]: 0.09 nM
EC50, CreLuc assay, 100% hP [1]: 4.17 nM
EC50, CreLuc assay, 0.5% hP [2]: 0.12 nM
EC50, CreLuc assay, 100% hP [2]: 0.82 nM
EC50, CreLuc assay, 0.5% hP [3]: 16 nM
EC50, CreLuc assay, 100% hP [3]: 53.4 nM

Y[Aib]EGTFTSDYSI[Aib]LEEEAQ[Aib]AFVQWLIK([εLys-εLys-γGlu-γGlu-γGlu-γGlu-γGlu-C20 diacid])GGPSSGASLRHYYNWLTRQRY-NH2 (also: TFA salt) [Compound 7]
EC50, CreLuc assay, 0.5% hP [1]: 0.13 nM
EC50, CreLuc assay, 100% hP [1]: 1.58 nM
EC50, CreLuc assay, 0.5% hP [2]: 0.23 nM
EC50, CreLuc assay, 100% hP [2]: 0.63 nM
EC50, CreLuc assay, 0.5% hP [3]: 16.9 nM
EC50, CreLuc assay, 100% hP [3]: 36.7 nM

Y[Aib]EGTFTSDYSI[Aib]LEKQAQ[Aib]AFVQWLIK([AEEA-AEEA-γGlu-γGlu-γGlu-γGlu-C18 diacid])GGPEEPASLRHYYNWLTRQRY-NH2 (also: TFA salt) [Compound 57]
EC50, CreLuc assay, 0.5% hP [1]: 0.14 nM
EC50, CreLuc assay, 100% hP [1]: 6.45 nM
EC50, CreLuc assay, 0.5% hP [2]: 0.18 nM
EC50, CreLuc assay, 100% hP [2]: 1.17 nM
EC50, CreLuc assay, 0.5% hP [3]: 9.74 nM
EC50, CreLuc assay, 100% hP [3]: 33.6 nM

Y[Aib]EGTFTSDYSI[Aib]LEKQAQ[Aib]AFVQWLIK([AEEA-AEEA-γGlu-γGlu-γGlu-γGlu-C18 diacid])GGPESGASLRHYYNWLTRQRY-NH2 (also: TFA salt) [Compound 58]
EC50, CreLuc assay, 0.5% hP [1]: 0.05 nM
EC50, CreLuc assay, 100% hP [1]: 2 nM
EC50, CreLuc assay, 0.5% hP [2]: 0.24 nM
EC50, CreLuc assay, 100% hP [2]: 0.31 nM
EC50, CreLuc assay, 0.5% hP [3]: 10.2 nM
EC50, CreLuc assay, 100% hP [3]: 22.8 nM

Y[Aib]EGTFTSDYSI[Aib]LEKQAQ[Aib]EFVEWLIK([AEEA-AEEA-γGlu-γGlu-γGlu-γGlu-C18 diacid])GGPSSPASLRHYYNWLTRQRY-NH2 (also: TFA salt) [Compound 56]
EC50, CreLuc assay, 0.5% hP [1]: 0.25 nM
EC50, CreLuc assay, 100% hP [1]: 8.97 nM
EC50, CreLuc assay, 0.5% hP [2]: 0.27 nM
EC50, CreLuc assay, 100% hP [2]: 1.02 nM
EC50, CreLuc assay, 0.5% hP [3]: 27.2 nM
EC50, CreLuc assay, 100% hP [3]: 48.8 nM

Y[Aib]EGTFTSDYSI[Aib]LEKQAE[Aib]AFVQWLIKGGPSEPASLRHYYNWLTRQRY-NH2 (not fully specified (residue 28); also: TFA salt) [Compound 54]
EC50, CreLuc assay, 0.5% hP [1]: 0.22 nM
EC50, CreLuc assay, 100% hP [1]: 7.71 nM
EC50, CreLuc assay, 0.5% hP [2]: 0.24 nM
EC50, CreLuc assay, 100% hP [2]: 1.4 nM
EC50, CreLuc assay, 0.5% hP [3]: 14 nM
EC50, CreLuc assay, 100% hP [3]: 60.1 nM

Y[Aib]EGTFTSDYSI[Aib]LEKQAQ[Aib]AFVQWLIKGGPSYYASLRHYYNWLTRQRY-NH2 (not fully specified (residue 28); also: TFA salt) [Compound 59]
EC50, CreLuc assay, 0.5% hP [1]: 0.39 nM
EC50, CreLuc assay, 100% hP [1]: 8.81 nM
EC50, CreLuc assay, 0.5% hP [2]: 0.49 nM
EC50, CreLuc assay, 100% hP [2]: 5.75 nM
EC50, CreLuc assay, 0.5% hP [3]: 10.8 nM
EC50, CreLuc assay, 100% hP [3]: 29.9 nM
